The values that follow come from patent US7517661B2, “Methods of screening for ligands for FPRL2” (Takeda Pharmaceutical Company Limited, priority 2003, dated 2009).

Where a chain is given by its changes, count along the chain named. Where no end group is shown, it is not given here.

For assay [1], the target named is T1, human FPRL2 (Homo sapiens, UniProt P25089, D338H/G94A/S211T).
T1 construct: expressed in transfected cells; host or cells: CHO cells
T1 sequence (P25089 1-353 G94A/S211T/D338H): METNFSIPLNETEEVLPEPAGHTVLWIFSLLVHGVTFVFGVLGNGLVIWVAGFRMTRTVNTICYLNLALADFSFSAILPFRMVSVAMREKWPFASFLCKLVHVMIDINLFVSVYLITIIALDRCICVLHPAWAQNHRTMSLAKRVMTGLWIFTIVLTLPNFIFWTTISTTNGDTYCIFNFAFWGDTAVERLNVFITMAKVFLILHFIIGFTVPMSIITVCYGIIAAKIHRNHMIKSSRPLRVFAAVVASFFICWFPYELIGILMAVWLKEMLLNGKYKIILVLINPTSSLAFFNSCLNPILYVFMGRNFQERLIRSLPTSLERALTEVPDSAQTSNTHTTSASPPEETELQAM
Description: Intracellular cAMP production inhibition assay (AlphaScreen) in human FPRL2-expressing CHO cells. The class given is cell-based. As to conditions: summary statement in disclosure of invention. How it is done:
(§1) Orphan G protein-coupled receptor protein-expressing CHO cells were inoculated in one flask of 150 cm^2 at 1×10^7 cells, followed by incubation at 37° C. in a CO2 incubator. Subsequently to the incubation, the cells were detached using 0.5 mM EDTA/PBS, and washed with PBS. The cells were then suspended at a density of 1×10^7 cells/ml in Buffer 1 (HBSS+0.1% BSA, 25 mM HEPES, pH 7.3, 0.5 mM IBMX). This cell suspension, 440 μl, was mixed with 22 μl of anti-cAMP acceptor beads of AlphaScreen cAMP Assay Kit (Perkin Elmer) and 638 μl of Buffer 1. The resulting mixture was dispensed on a white 96-well plate (Costar) by 10 μl each. Next, 10 μl each of a Buffer 1 dilution or solution of the compound to be screened was added to each well. In this case, the cell suspension was not given in one row of the plate but only a mixture of 9 μl of anti-cAMP acceptor beads and 441 μl of Buffer 1 was charged and instead of the compound, a serial dilution of cAMP was added thereto. This was made standard. The plate in which a mixture of the cell suspension and the compound was charged was kept shaken at room temperature for 30 minutes. Thirty minutes after, a mixture of 20 μl of Biotinyl camp and 82 μl of Streptavin donor beads of AlphaScreen cAMP Assay kit with 40 ml of Buffer 2 (HBSS+0.1% BSA, 25 mM HEPES, pH 7.3, 1.5% Tween 20) was added to all wells of the plate by 30 μl each. The plate was kept shaken at room temperature for 3 hours and the fluorescence intensity was measured by Fusion a (Perkin Elmer). Using the cAMP standard charged in the plate, the cAMP level in each well was calculated. In addition to human FPRL2-expressing CHO cells, three orphan G protein-coupled receptor protein-expressed CHO cells were added and the resulting compound library was provided for screening using the assay system described above.
(In general: cAMP levels reflect the balance of adenylyl cyclase and phosphodiesterase activity.)

Assay [2] addresses T2, human FPRL2 (Homo sapiens, UniProt P25089).
T2 construct: expressed in transfected cells; host or cells: CHO cells
T2 sequence (P25089 1-353 G94A/S211T/D338H): T1 sequence (P25089 1-353 G94A/S211T/D338H)
Described as above. The format is cell-based. Conditions: human FPRL2-expressing CHO cells; reactivity also examined for human FPRL1, human FPR1 and mock CHO (FIGS. 1-4). How it is done: as §1

In another assay the target is T3, FPRL2 (Homo sapiens, UniProt P25089).
T3 sequence (P25089 1-353): T1 sequence (P25089 1-353 G94A/S211T/D338H) with A94G, T211S, H338D
As to conditions: J Biol. Chem., Jun. 15, 2001; 276 (24): 21585-93; cited from earlier work.

Turning to “Ala-Arg-Pro-Gly-Tyr-Leu-Ala-Phe-Pro-Arg-Met-NH2 (ARPGYLAFPRM-NH2; listed as Aplysia sp.) [SCPA]”, the “ligand activity on FPRL2” value with human FPRL2 [1] is recorded as “exhibit a ligand activity on FPRL2”. Moreover, the “intracellular cAMP production inhibition activity” value with human FPRL2 [2] is listed as “exhibited the intracellular cAMP production inhibition activity specific to human FPRL2”.

Consider “Gly-Asn-His-Trp-Ala-Val-Gly-His-Leu-Met-NH2 (GNHWAVGHLM-NH2; listed as Homo sapiens) [hNeuromedin C]”, for which the “ligand activity on FPRL2” value with human FPRL2 [1] is reported as “exhibit a ligand activity on FPRL2”. Besides, in the assay with human FPRL2 [2], the “intracellular cAMP production inhibition activity” value is listed as “exhibited the intracellular cAMP production inhibition activity specific to human FPRL2”. The corresponding values for “His-Trp-Ala-Trp-Phe-Lys-NH2 (HWAWFK-NH2; not fully specified (residues 2, 5); printed as His-Trp-Ala-Trp-Phe-Lys-NH2) [GHRP-6]” are “exhibit a ligand activity on FPRL2” and “exhibited the intracellular cAMP production inhibition activity specific to human FPRL2”. In the case of “Met-Pro-His-Ser-Phe-Ala-Asn-Leu-Pro-Leu-Arg-Phe-NH2 (MPHSFANLPLRF-NH2; listed as Sus scrofa) [hRFRP-1-12]”, the “ligand activity on FPRL2” value with human FPRL2 [1] was “exhibit a ligand activity on FPRL2”. In addition, the “intracellular cAMP production inhibition activity” value in the assay with human FPRL2 [2] was “exhibited the intracellular cAMP production inhibition activity specific to human FPRL2”.

Trp-Lys-Tyr-Met-Val-Met-NH2: the “agonist for FPRL2 (reported)” value with FPRL2 is listed as “agonist for FPRL2”.
